Measurements taken from the DeepSol protein solubility set.

assay: soluble on expression in E. coli; label from the status in PepcDB or PDB records

Sequence | soluble on expression in E. coli
MTQTAAPARYSPAELACALGLFPPTAEQAAVIAAPPGPLVVIAGAGAGKTETMAARVVWLVANGYAEPGQVLGLTFTRKAAGQLLRRVRSRLARLAGIGLGCGDPAACAPVVSTYHAFAGSLLRDYGLLLPLEPDTRLLSETELWQLAFDVVSGYDGVLCTDKSPAAVTSIVVRLWGQLGEHLVDTRALRDTHVELERLVHALPAGRYQRDRGPSQWLLRMLATQTQRAELVPLLDALGERMHAGKVMDFAMQMASAARLAATSPQVGQDLRRRYRVVLLDEYQDTGHAQRVVLSSLFGGGVDDGLALTAVGDPIQSIYGWRGASATNLPRFTTDFPLSDGTPAPVLELLTSWRNPPQALRVANGISAEARRRSVAVRALRPRPDAPPGAVRCALLPDVQAEREWIADHLRMRYQRAEADGVKPPTAAVLVRRNADAAAIADTLRARGIPAEVVGLAGLLSIPEVAEVVAMLRLVADPTAGAAAMRVLTGPRWRLGARDLAALWRRALTLSGESPSTASPESIAMAASADADNPCLADAISDPGSAEGYSVAGYGRIGALAGELSALRGRLGHSLPDLVAEVRRVLGVDCEVRASAPVSGGWAGPEHLDAFADVVAGYAERASARSSEASVAGLLAYLDVAEVVENGLPPAELTVACDRVQVLTVHAAKGLEWQVVAVAHLSRGVFPSTVSRSSWLTDPAELPPLLRGDRASAGAHGIPVLDTSAVADRKQLSDKISEHRRLLDRRRVDEERRLLYVAVTRAEDTLLVSGHHWGPTGTKPRGPSEFLCELKDIIDRSAAAGDPCGVVEQWASAPAGDERNPLCDNAIEAVWPADPLAARRGDVERGAALVAAAMSADLPGSTTDIDHPPRPGDAPWSTDVDALLAERAHAARGAPARGLPNHLSVSSLVELVGDPVGARQRLMCRLPKRPDPHAWLGDAFHAWVQQFYGAELLFDLGDLPGAADREVGDPEELAALQRAFTASSWAARTPAAVEVPFEMPIGDTVVRGRIDAVFVDPDGGATVVDWKTGKPPHGPAAMRQAAVQLAVYRLAWAALRGCPTSSVRTAFYYVRSGITVVPDELPAPGELAMLLTDCAGRRSDT | not soluble
MWQAISQQLSDTLLFEYQITEKVRLSGGDISESYMINDGEQRYFVKINDREFLHKFEVEAESLHLLRETSTIFVPEVVLVGKTKNNAFIILNYLPTKPLDDPENSFKFGQQLAQLHQWGEQKEFGFDTDNYLGSTLQPNQWHKKWCMFFAEQRIGWQLQLLKEKGVTLVDIDDFIDVVKQLLANHTPEPSLLHGDLWNGNVALTAFGPICFDPACYWGDRECDIAMTELFGGFQPEFYQGYESVMPLLPGYHERKDIYNLYHILNHCNLFGGHYLEQAQLTINKIISYLEHHHHHH | soluble
ALSPPRRKSFKKWTPPRSPFNLVQEILFHDPWKLLIATIFLNRTSGKMAIPVLWEFLEKYPSAEVARAADWRDVSELLKPLGLYDLRAKTIIKFSDEYLTKQWRYPIELHGIGKYGNDSYRIFCVNEWKQVHPEDHKLNKYHDWLWENHEKLSLS | soluble
AIHAVCVLKGDSPVTGTIHLKEEGDMVTVTGEITGLTPGKHGFHVHEFGDNTNGCTSAGGHFNPHGKEHGAPEDENRHAGDLGNVVAGEDGKAVINMKDKLVKLTGPDSVIGRTLVVHVDEDDLGRGGHEQSKITGNAGGRLACGVIGITKE | soluble
MGSDKIHHHHHHVTRVAVVGDSLSAYAVAAVLTKLGYNCDLLCYPTKSNFYGPSLVLNDVSETLLSELFPDVNLGVDSQRLTHRWVCWGTQPVQIEQPALAIRSNSLLELLRNSKVMQHTRMIDASQLTAQQISQKYAWTVYTKHKQRGMPTLGEPCLQNAARSLLPRSRSVPQGSGTPTAGVAIALSESSQSLIGGQRVIVTAEVQDTPKSAYTCYMESLAEGWLFYAPVNGSGAMVQACLPITPANPRRALLECLYKSTTISTFVNDLQKVNCFFSAPYLEWPLCGLGWLMVGEPAIKIDPVSGEGTPFALRSAILAGAVIDAILSDRIPDISALNHYQTRLTHSFISHLRGCIQFYREVFSTNLAWQAEINQMIDIAETLSTQLEQQAVNVLNYRLIDFELHIG | not soluble
MSLYENKKVVAIGGGHGLGRMLAALKVFGSNATGIVTTTDNGGSTGRIRHCQGGIAWGDTRNCINQLITEPSISSMMFEYRFKGAGELNGHNLGNLMLTALDNLSVRPLDAINLIRNMLKVDVNILPMSEHPSDLAALAMDGKWVTGETSVDEMTQDLRRLDLAPEVPATKEAVTAIQDADCVILGPGSFLTSVMPPLLLPELGKAIARNQTAKVIFVENLSPEYGPAGRMSLEQKLEWCERACQGRKIDVVLGHHPHPELEQRWNFVTRDLASANRDWRHDRQKLRQAIEEQLMNLEHHHHHH | soluble
MGSDKIHHHHHHMLITETFHDVQTSYGTTLRIYVYSPKIAGYPQAKFPGVILYSEIYQVTGPVRRFGQRIASEGYVVVAPAIYHNFMGPEALPYDVQGTDIGNEYKIKKPLESYDEDNKLCCDLLFQLPQFDGKRIGSTGMCLGGHLAFRALLDKRVTCATCFFPTDIHSRTLGLGQNDNSLERVSKELGNNQEMVLIFGTADTHVDPQGRDLIRKTLRDHGVKFTFLEILAAQHAFIRDEFSKGRFDSAITQSCLGFLFEQFNRKLRIDLGEFVDDNTPLEHVC | not soluble
SGEEANDDKKPTTKFELERETELRFEVEASQSVQLELLTGMAEIFGTELTRNKKFTFDAGAKVAVFTWHGCSVQLSGRTEVAYVSKDTPMLLYLNTHTALEQMRRQAEKEEERGPRVMVVGPTDVGKSTVCRLLLNYAVRLGRRPTYVELDVGQGSVSIPGTMGALYIERPADVEEGFSIQAPLVYHFGSTTPGTNIKLYNKITSRLADVFNQRCEVNRRASVSGCVINTCGWVKGSGYQALVHAASAFEVDVVVVLDQERLYNELKRDLPHFVRTVLLPKSGGVVERSKDFRRECRDERIREYFYGFRGCFYPHAFNVKFSDVKIYKVGAPTIPDSCLPLGMSQEDNQLKLVPVTPGRDMVHHLLSVSTAEGTEENLSETSVAGFIVVTSVDLEHQVFTVLSPAPRPLPKNFLLIMDIRFMDLK | not soluble
MAHHHHHHMADYGWTRGKLPKFRARSPFHRQQIARRMVTEMIRKDYCIVGGARAPALRILADHVVELAKAGDTDSRQQLAYFLHDPLMVDKAFDEYPRRFKDMNAKYAMMTRLKSRRRTDAVAMYFVEYKNRDMSDNHKGEDYSAGPERFFLPPRIVETEKGIQRPPHMQMAFDRWASKFKTEEFHHWWRLRHAKLRYWGVRNVPHPSDVDPLWTEKEEEEWHNEMLANTGEYEDLDLDDESYTAAGEGGEPSPAGDGPQPQRVG | not soluble
MGSDKIHHHHHHMNNIGLILEGGGMRGVYTAGVLDFFMDKNLYFPYVSGVSMGACNAASYVSKQRGRTKSVTVDLADDSRYISLKNFIKYKSIFGMDFIFDEVPNKLFPFDFNTFSNSTQKLVIGTTDCLTGKEVYFSHSSSNDILDIIRASSSLPFISEPVKINNYTLMDGGIADPIPIKRSIEDGNAKNVLILTREADYIKNPFKHNWILSKKYSQFKGLCKAILNRHKLYNETLKYISHLENTGKVFIIRPTFSPKVKRIEKNKSRLNALYLEGYKDAEKNYDKLLQFLNSN | not soluble
MSVRRLADDVYQPAEFSFTKENQIWVKNTIEKYPVGREQSAVIPLLMRAQEQDGWVTRAAIEHIAQILSMAYIRVLEIATFYTQFQLQPVGTKAHIQVCGTTPCMLRGSEELIKVCQKKIHHKPFVTNQDGSLSWEEVECLGACVNAPMVMIFKDTYEDLTAKRLEEIIDAFEAGKGAEIAVGPQNSRKSSEPISGLTSLIDEKEQKSLKSLKKKDKKEMGA | not soluble
GKDDDNVETGAFDPSKPVAISDFTPKEGGAYQKLLIYGENFGTDVSKVKVKIGGKDAIVINVKSTYVYCFVPSGAFSGEIEITVGEGENAVTTTASTTFSYEKKMVVGTLCGYRNNRDDQGWRDGPFDGPEGVKCCGFSDNGRLAFDPLNKDHLYICYDGHKAIQLIDLKNRMLSSPLNINTIPTNRIRSIAFNKKIEGYADEAEYMIVAIDYDGKGDESPSVYIIKRNADGTFDDRSDIQLIAAYKQCNGATIHPINGELYFNSYEKGQVFRLDLVDYFKTIKNGGSWDPIVKNNPNTFKQLFTIADPSWEFQIFIHPTGKYAYFGVINNHYFMRSDYDEIKKEFITPYNFVGGYKQSGYRDDVGTEARMNNPCQGVFVKNPDYTGEEEYDFYFVDRLNFCVRKVTPEGIVSTYAGRGASTSLADGNQWGTDDGDLREVARFRDVSGLVYDDVKEMFYVHDQVGHTIRTISMEQEENVAGDENIPEDESTVESNE | soluble
VSPRPGPAGRGPAPCRCADLHSLCVDSHALRRDGMRFLHTADWQLGMTRHFLAGDAQPRYSAARRDAVAGLKALAADVGAEFVVVAGDVFEHNQLAPQIVGQSLEAMRVIGLPVYLLPGNHDPLDASSVYTSTLFRAERPDNVVVLDRAGVHEVRPGVQIVAAPWRSKAPTTDPVAEVLAGLPTDAAIRLLVAHGGVDALDPDHDKPSLIRLAALDDALTRQAIHYVALGDKHSLTQVGSSGRVWYSGAPEVTNFDDVEPDPGHVLVVDIDESDPRHPVTVDARRIGRWRFVTLHHQVDTSRDIADLDLNLDLMTDKDRTVVRLALTGSLTVTDRAALDTCLDKYARLFAWLGLWERHTDLAVIPVDAEFTDLGIGGFAAAAVDELVATARGGDDESAVDAQAALALLLRLADRGAA | not soluble
MAHHHHHHSLKNTLGRQFSRATETYEKWAVPQRKSAKILVEFVKPSGLVLDLGCGTGFISEFVNDCEVVGLDISEGMAKAYREKFRKVVIGNAENLPFKDRSFDFVLSNFSLHWSDWRKSIREALRVCKNFVGVAIPVYGSVSFSEFPFPKAEEILEEFKPQEFKIINLEIPFRGMELIKFFHYTGTANFTGKKNFKTKRELIKLSKDLEKEYFKVLFLKLKSRAFEG | soluble
MILSVTFSPSEVPLAGAIASISSIKIIAGAACLAFLKISLILFSLSPTHLLNTSGPLTAMKLASLSVATALAKRVLPVPGGPYNKTPLGGVIPSFLNALGYFSGHSTASLSSCFTSSNPPMSSQWTFGTSMRTSLKAEGSTIFKASLEHHHHHH | not soluble
MSFTVIIPARFASSRLPGKPLADIKGKPMIQHVFEKALQSGASRVIIATDNENVADVAKSFGAEVCMTSVNHNSGTERLAEVVEKLAIPDNEIIVNIQGDEPLIPPVIVRQVADNLAKFNVNMASLAVKIHDAEELFNPNAVKVLTDKDGYVLYFSRSVIPYDRDQFMNLQDVQKVQLSDAYLRHIGIYAYRAGFIKQYVQWAPTQLENLEKLEQLRVLYNGERIHVELAKEVPAVGVDTAEDLEKVRAILAANGSHHHHHH | soluble
MSLKKILIIDQQDFSRIELKNFLDSEYLVIESKNEKEALEQIDHHHPDLVILDMDIIGENSPNLCLKLKRSKGLKNVPLILLFSSEHKEAIVNGLHSGADDYLTKPFNRNDLLSRIEIHLRTQNYYSDLRKNDLLMLLELTETISVTRNPRRILSIIVERLIKTIDVSRCSIIGINDFGELLVLASSDLPENQEIKLDLKKYPEIEKALETQRPVVLQDITNSALMKPVKKHIEALSDNAVFVVPIIKKQNVIGTFFLRTACLQKGGITDRIFKLCQVIASISGNALENAIIFESMETNKKLLEDLSVRDSLTKLYNHQHYHSRLEDEFSRAQRYNLDLSCIFLDIDNFKNINDRYGHLAGDMVLRQIARLISQVIRKSDISARYGGEEFAICLPNTGGVAANELAERLLVMIRELSIQQLKGEHVTVSIGTSTYSNHNVASYSELLHLADDAMYEAKKSGKNRFCCSTAMEGHHHHHH | soluble
SLDEITAVVRTAARELVSADGATFVLRENGNCFYADEDAIAPLWKGLRFPLERCISGWVMLNRQAAVIEDIYQDQRIPVEAYRPTFVQSLAMVPIRGEDPIGAIGTYWARRH | not soluble
MAHHHHHHMYYADVDYEVPSRVVQLTDATFDTIVMDPTKDVFVLYCVTWSRHCRSAVKLWADLSISQFKRPTADTFVAALIDAEAFPETAKRMGVKSYPTMLFYTRLEKATPLEYNGQGLLPLLDSFVFQNS | not soluble
